Experimental data published in the nanobody polyreactivity screen of Harvey et al. (2022).

Test: yeast display, Sf9 membrane polyspecificity reagent, FACS + sequencing; frameworks hold sequencing errors
Summary of the method: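 Sorting gates, low and high (top ~1%), were placed on anti-HA fluorescence to track expression and on streptavidin fluorescence to track reagent binding. A clone's polyreactivity label is taken from the gate it came out of. The reagent was 10% biotinylated, detergent-solubilized Sf9 membrane, applied for 1 hour at 4 °C to galactose-induced yeast display cells.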

Sequence	polyreactivity (PSR sort gate)
QVQLVESGGGLVQAGGSLRLSSAPSGSTFTRYAMGWYRQAPGKERELVAAITSSGSRTYYADSVKGRFTISRDNAQNTVYLQKNSLKAEDTAVYYFAALGDTRYVGMDHWGQCTQVTVSS	high polyreactivity
QVQLVESGGGLVQAGGSLRLSCAASGRTFAGNAMGWYRQAPGKERELVASISSSAGRTYYADSVKGRFTISRDNAKNTVYLQMNSLKPEDTAVDYCAARGGYVSTWTRFSKYNYWGQGTQVTVSS	high polyreactivity
QVQLVESGGGLVQAGGSLSLSCAASGFNFGVNTRGWDRQAPGKERELVAAITGSGSSTDYADSVKGRFTISRDNAKNPVYLQMHRLKPEDTAVYYCAASYYSNYPTYLRYYDWGQGTQVTVSS	high polyreactivity
QVQLVESCGDLVQAGASLRLSCAASGRIFVYYAMGWYRQAPGKERELVALITSLGSTNYSDSVKGRFTISRDNGKNCVYLQMNSLKPEDTAVYYCAAEWEYYGFDYWGQGTQVTVSS	low polyreactivity
QVQLQESGGGLVQAGGSLRLSCAASGTISQEDRMGWYRQAPGKEREFVAAIGLGSNTNYADSLKGRFTISRDNAKNTVYLQMNSLKPEDTAVYYCAVSVWQYSDHVYRGQGTQVTVSS	low polyreactivity
QVQLQERGGGLVQAGGSLRLGCEASGNISDDGYMGWYRQAPGKEREFVAAIAAGSNTNYADSVKGRFTISRDNAKNTVYLQMNSLKPVETAVFYCAVASYARVQYLYWGQGTQVTVYS	low polyreactivity
QVQLVESGGGLVQAGGSLRLSCAASGRIFVVNAMGWYRQAPGKERELVAAISRSGGSTYYADSVKGRFTISRDNAKNTVYLQMNSLKPEETAVYFCAAVSWIYSFSAMSIYDYWGQGTQVTVSS	high polyreactivity
QVQLVESGGGLVQAGGSLRLSCAASGITFAYYGMGWYRQAPGKERELVAAISWTGSSTYYADSVKGRFTISRDNAQNTVYLQMNSLKPEDTAVYYCAARQRYRYDYWGQGTQVTVSS	high polyreactivity
QVQLVESGGGLVQAGGSLRLSCAASGRIFSNNAIGWYRQAPGKARELVAAHSWNGGRTYYADSVKGRFTISRDNGKNTVYLQMNSLQPEDPAVYYCTKHDAQTRSFASTWYVYWGQGTQVTVSS	high polyreactivity
QVQLVESGGGLVQAGGSLRLSCAASGITFSFYVMGWDRQAPRKERELVAAISRGGSTYYADSVKGRFTISRDNAKNTVYLQMNSLKPEDTAVYYCAAVRLSRVYYWGQGTQVTVSA	high polyreactivity
QVQLVESGGGLVQAGASLRLSCAPSGSTFYPNSMAWYRQSPGKERHLVDAITSGGSTYYADSVKGRFTISRDNSKNTVYLQMNSLKPEDTAVYYCAAQRRYHQDTTIAPGNYYYWGQGTQVTVSS	low polyreactivity
QVQLVESGGGLVHAGGSHRLSCAASGFSFKSYAMGWYRQAPGKERELVAAISRRCGSTNYADSVKGRFTISRDNAKNTVYLQMNSLKPEDTAVYYCNADPYNSPYQVSGPYKEDYDYWGQGTQVTVSS	high polyreactivity
QVQLVESGGGLVQAGGSLRLSCAASGFIFIKYAMGWYRQAPGKERELLAASSFRGGRTYYADSVKGRFTISRDNAKNTVYLQMNSLNPEETAVYYCAAETRDYSEGYYWGQGTQVTVSS	high polyreactivity
QDQLVESGGGLVQAGCSLRLTCAASGSTFTSNAMGWYRQAPGKERYLVASISGSVGRTYYADSVKGRFTISRDNAKNTVYLQMNSLKPEDTAVYYCNDESRNLYSTQFDYWGQGTQVTVSS	low polyreactivity
QVQLVDSGGGLVQAGGSLRLTCGSSGSIFYYYVMGLYIQAHGKERELVAAISSGGGTNYSDSVKGRFTISRYNAKNTVYLQMNSLKPEDTAVYYCAKASAYGLANDYDYCGQGTQVTVSS	low polyreactivity
QVQLVESGGGLVQAGGSLRLTCAASGRTFSKYAMGWYRQATGKERELVAAITSGGGTYYADSVKGRFTISRDNAKNTVYLQMNSLNPEDTAVYYCAVSVTTVSTYDYWGQGTQVTVSS	low polyreactivity

Sequence	polyreactivity (PSR sort gate)
QVQLVESGGGLVQAGGSLRLSCAASGSTFVFYAMGWYRPAPGKERELVASISFRGGSTRYADSVKGRFTISRDNAKNTVYLHMNSLKPEDTAVYYCNARPFYRYYYWGQGTQVTVSS	high polyreactivity
QVQLVESGGGLVQAGGSLRLSCAASGSILLTNTMGWYRQAPGKERELVADINSGASTNYADSVKGRFTISRDNAKNTVYLQMNSLKPEDTAVYYCAADTKGGTYEYDYWGQGTKVTVSS	low polyreactivity
QVQLVESGGGLVQAGGCLRLSCAASGRIFTTNPMGWYRPAPGKERELVARITYSGTSTYYADSVKGRFTISRDNAMNTVYLQMNSLKPEDTAVYYCAAKVWWRKYQLLDYYYWGQGTQVTVSS	high polyreactivity
QVQLVESGGGVVQAGGSLRLSCAASGRNFGHYTMGWYRQAPGIERELVARISQSGGSTRYADSVKGRFTISRDNAKNTVYLQMNSLKPEDTAVYYWATYRRHFFYFAIPGYSSAYEYSGQGTQVTVSS	high polyreactivity
QVQLVESGGGLVQAGGSLRLSCAASGSTFDFYAMGWYRQAPGKERELVAAISKSGGSTYYADSVKGRFTISRDTAKNTVYLQMNSLKPEDTAVYYCAAYVSYRMYWGQGTQVTVST	high polyreactivity
QVHLVDSGGGLFQAGGILRLSCAASGRTIATNAMGWYRQAPGKERELVAGISWRVGRTYYADSVKGRFTISRDNAKNSVYLQMFSLKPEDTAVYYCAANPVRSRYGYWGQGTQVTVSS	high polyreactivity
QVQLVESGGGLVQAGCSLRLSCAASGRTFSKYTMGWYRQAPGKERELVAAISGSGGSTYYADSVKGRFTISRDNAKNTVYLQMNSLKPEDTAVYYCAAEDEYNWYDDYFYTFDYWGQGTQVTVSS	low polyreactivity
QVHHVESGGGVVQAGGSLRLSCAASGRITYVNAMGWYRQPPGKESELVATITGSGDSKHYADSVKGRFTISRDNAMNTVYLQMNSLKPEVTAVYYGAADVYRYWQIYEYWGQGTQVTVSS	low polyreactivity
QVQLVESGGGLVQAGGSLGLSCAASGGILQSYAMGWYRQAPGKERELVATITYSAGSTYYADSVKGRFTISRDNAKNTVYLQMKSLKPEDTAVYVCAARRIPPARYKGYYYWGQGTQLTVSS	high polyreactivity
QVQLVESGGGLVQAGGSLRLSWAASGSIFQVYAMGWYRQAPGKEREFVAAISYSGGGTYYADSVKGRFTISRDNAKNTVYLQMNSLKPEDTAVYYCAADVSGWEYDYWGQGTQVTVSS	low polyreactivity
QVQLVESGGGLVQAGGSLRLSCAASGRTFSGYVMGWYRQAPGKERELVATINGSGASTYYADSVKGRFTISRDNAKNTVYLQMNSLKPEDTAVYYCNKYPAHYQTRRYDYWGQGTQVTVSS	high polyreactivity
QVQLVEAGGGLVQAGGSLRLSCAASGITCRNDAIGWYRQAAGKERELVADITTGGSTYADSVKGRFTISRDNAKNTVYLQLISLKPEDTAVYYFAADRDFRTPRLYYWGQGTQVTVSS	low polyreactivity
QVQLVESGGGLVQAGASLRLSCAASGFTFTPYAMGWYRQAPGKERELVAGITSGVGRKYADSVKGRFTISRDNAKNTVYLQMNSLKPEDTAVYFCAARYDHWGQGTQVTVSS	high polyreactivity
QVQLVESGGGLVQAGGSLRLSCAASVSIFAYYAMGLYRQAPGKERELVAAISRGGDTNYADSVKGRFTISRDNAKNTVYLQMNSLKPEDTAVSYCAATSYVRGYWYGYWGQGSQVTVSS	high polyreactivity
QVQLVESGGGLVQAGGSLRLSCAASGSTFPSYAMGCYRQAPAKERELVAAINSGGGTNYADSVKGRFTISRDNAKNTVYLQMNSLKPEDTAVYYCAKSRYDYTKTEGGYWGQGTQVTVSS	low polyreactivity
QVQLVESGGRLVQAGGSLRLSCAASGRTFGSYAMGWFRQAPGKERELVATIRNSGGISYYADSVKGRFTISRDTAKNTVYLQMNSLKPEDTAVYDCAKLGRYGYDYWGQGTQVTVSS	high polyreactivity
